T1: mouse IL-2Rα (mouse) (UniProt P01590)
T1 sequence (looked up): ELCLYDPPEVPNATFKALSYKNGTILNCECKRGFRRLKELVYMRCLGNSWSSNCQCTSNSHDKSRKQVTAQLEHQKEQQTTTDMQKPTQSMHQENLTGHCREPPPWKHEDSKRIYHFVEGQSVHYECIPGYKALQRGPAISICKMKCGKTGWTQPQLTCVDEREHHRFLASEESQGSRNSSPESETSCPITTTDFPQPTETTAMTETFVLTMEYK

T2: mouse IL-2Rγ (mouse) (UniProt P34902)
T2 sequence (looked up): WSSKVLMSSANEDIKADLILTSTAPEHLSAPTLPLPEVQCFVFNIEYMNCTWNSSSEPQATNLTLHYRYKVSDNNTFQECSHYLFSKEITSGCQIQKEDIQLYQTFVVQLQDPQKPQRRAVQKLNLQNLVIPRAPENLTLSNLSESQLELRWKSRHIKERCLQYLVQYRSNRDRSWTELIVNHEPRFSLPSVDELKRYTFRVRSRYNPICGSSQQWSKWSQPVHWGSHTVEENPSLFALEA


molecular target: T1, mouse IL-2Rα (mouse); assay: ELISA, P.E. on coated antigen

| Binder | OD (PE binding ELISA) [OD450 nm] |
| --- | --- |
| 2-MP01A02 (VHH) VHH: QVQLVESGGGLVQPGGSLRLSCATSGFTFRNNFMSWVRQAPGKGLEWVSTISYGGESTTYAESVKGRFTISRDNAKNTLYLQMNNLKPEDTAVYYCAKATSYDSIRSGSRGQGTQVTVSS | 0.046 |
| 1-MP01H01 (VHH) VHH: EVQLVESGGGLVQAGGSLRLSCAASGRTFRTHNMGWFRRAPGKEREFVAAISWNVDNTLYADSVKGRFTISRDNGRNMVYLQMNSLKPEDTAVYYCAADNIPLSSDVAATATEYDYWGQGTQVTVSS | 0.048 |
| 6-MP01G05 (VHH) VHH: QVQLQESGGGLVQAGGSLRLSCAASGRTFSSYAMGWFRQAPGKEREFVAVISWNVDNTEYTDSVKGRFTISRDNDKNMVYLQMNSLKPEDTAVYYCAADSIPLSSDMSPTATEYGYWGQGTQVTVSS | 0.046 |
| 3-MP01E03 (VHH) VHH: QVQLVESGGGLVQAGGSLRLSCTASGRTLSSYSMAWFRQAADKGREFVTAISSSGVVTHVLDSVKGRFTISRDNAKNTVYLQMNSLQPEDTALYFCAGTASSYSTYEANYNYWGQGTLVTVSS | 0.046 |
| 5-MP01F05 (VHH) VHH: EVQLVESGGGLVQAGGSLRLSCAASIRAFTTWSMAWFRQAPGKEREYVARINVSGSVTYYADFVKGRFTISRDNAKKTMYLEMNNLKPEDTALYYCAADRTGVGTNDYNYWGQGTQVTVSS | 0.046 |

molecular target: T2, mouse IL-2Rγ (mouse); assay: PE binding ELISA, periplasmic extract on coated protein

| Binder | OD (PE binding ELISA) [OD450 nm] |
| --- | --- |
| FJ1427_P035MP04A09 (VHH) VHH: QVQLVESGGGLVQAGGSLRLSCAASGRTFGAVAVGWFRQVPGKEREFVAAINRNGSATKYADSAKGRFTISRDNAESPVYLQMNSLKPEDTAIYYCAADSLPYGRPYYFQTSAGEYDYWGQGTQVTVSS | 0.049 |
| FJ1427_P035MP04D11 (VHH) VHH: EVQLVESGGGLVQAGGSLRLSCAASGRTFGAVAVGWFRQVPGKEREFVAAINRSGSATKYADSVKGRFTISRDNAESPVFLQMNSLKPEDTAVYYCAADSLPYGRPYYFQTSAGEYDYWGQGTQVTVSS | 0.048 |
| FJ1427_P035MP04G07 (VHH) VHH: QVQLVESGGGWVQVGESLRLSCAPSGRTFVSGIMGWFRQAPGKEREFVARIILNNNSTRYTDSVKGRFTISRDSAKNTMYLQMNTLRPEDTAVYYCAARDRYGSGNSLSPSAYDYWGQGTQVTVSS | 0.049 |
| FJ1427_P035MP04D12 (VHH) VHH: QVQLVESGGGWVQVGKSLRLSCAPSGRTFVSGIMGWFRQAPGKEREFVARIILNNNSTRYIDSVKGRFTISRDSAKNTMYLQMDSLRPEDTAVYYCAARDRYGSGNSLSPSAYDYWGQGTQVTVSS | 0.054 |
| FJ1427_P035MP04G08 (VHH) VHH: QVQLVESGGGWVQVGESLRLSCAPSGRTFVSGIMGWFRQAPGKEREFVARIILNNNSTRYTDSVKGRFTISRDSAKNTMYLQMDSLRPEDTAVYYCAARDRYGSGNSLSPSAYDYWGQGTQVTVSS | 0.049 |
| FJ1427_P035MP04D09 (VHH) VHH: QVQLVESGGGWVQVGESLRLSCAPSGRTFVRGIMGWFRQAPGKEREFVARIILNSNSTRYIDSVKGRFTISRDSAKNTMYLQMNSLRPEDTAVYYCAARDRYGSGNSLSPSAYDYWGQGTQVTVSS | 0.048 |
| FJ1427_P035MP04A10 (VHH) VHH: EVQLVESGGGWVQVGESLRLSCAPSGRTFVSGIMGWFRQAPGKEREFVARIILNNNSTRYTDSVKGRFTISRDSAKNTMYLQMNTLRPEDTAVYYCAARDRYGSGNSLSPSAYDYWGQGTQVTVSS | 0.048 |
| FJ1427_P035MP04H10 (VHH) VHH: QVQLVESGGGLVQAGGSLRLSCAPSGRTFVSGIMGWFRQAPGKEREFVARIILNNNSTRYIDSVKGRFTISRDSAKNTMYLQMDSLRPEDTAVYYCAARDRYGSGNSLSPSAYDYWGQGTQVTVSS | 0.049 |
| FJ1427_P035MP04G11 (VHH) VHH: QVQLVESGGGWVQVGESLRLSCAPSGRTFVSGIMGWFRQAPGEEREFVARIILNNNSTRYTDSVKGRFTISRDSAKNTMYLQMNTLRPEDTAVYYCAARDRYGSGNSLSPSAYDYWGQGTQVTVSS | 0.048 |
| FJ1427_P035MP04F10 (VHH) VHH: QLQLVESGGGWVQVGESLRLSCVPSGRTFVSGIMGWFRQAPGKEREFVARIISNNNSTRYTDSVKGRFTISRDSAKNTMYLQMNTLRPEDTAVYYCAARDRYGSGNSLSPSAYDYWGQGTQVTVSS | 0.048 |
| FJ1427_P035MP04F09 (VHH) VHH: QVQLVESGGGWVQVGESLRLSCAPSGRTFVRGIMGWFRQAPGKEREFVARIILNNNSTRYTDSVKGRFTISRDSAKNTMWLQMDSLRPEDTAVYYCAARDRYGSGNSLSPSAYDYWGQGTQVTVSS | 0.049 |
| FJ1427_P035MP04E12 (VHH) VHH: QLQLVESGGGWVQVGESLRLSCAPSGRTFASGIMGWFRQAPGKEREFVARIILNNNSTRYTDSVKGRFTISRDSAKNTMYLQMNTLRPEDTAVYYCAARDRYGSGNSLSPSAYDYWGQGTQVTVSS | 0.051 |
| FJ1427_P035MP04H11 (VHH) VHH: QVQLVESGGGWVQVGESPRLSCAPSGRTFVSGIMGWFRQTPGKEREFVARIILNNNSTRYTDSVKGRFTISRDSAKNTMYLQMNTLRPEDTAVYYCAARDRYGSGNSLSPSAYDYWGQGTQVTVSS | 0.049 |
| FJ1427_P035MP04B11 (VHH) VHH: EVQLVESGGGWVQVGESLRLSCAPSGRTFVSGIMGWFRQAPGKEREFVARIILNNNSTRYIDSVKGRFTISRDSAKNTMYLQMDSLRPEDTAVYYCAARDRYGSGNSLSPSAYDYWGQGTQVTVSS | 0.047 |
| FJ1427_P035MP04H09 (VHH) VHH: EVQLVESGGGWVQVGESLRLSCAPSGRTFVSGIMGWFRQAPGKEREFVARIILNNNSTRYTDSVKGRFTISRDSAKNTMYLQMNTLRPEDTAVYYCAARDRYGSGNSLSPSAYDYWGQGTQVTVSS | 0.05 |
| FJ1427_P035MP04F11 (VHH) VHH: QVQLVESGGGWVQVGESLRLSCAPSGRTFVSGIMGWFRQTPGKEREFVARIILNNNSTRYTDSVKGRFTISRDSAKNTLYLQMNTLRPEDTAVYYCAARDRYGSGNSLSPSAYDYWGQGTQVTVSS | 0.049 |
| FJ1427_P035MP04G10 (VHH) VHH: QVQLVESGGGWVQVGESLRLSCAPSGRTFVSGIMGWFRQAPGKEREFVARIILNSNSTRYTDSAKGRFTISRDSAKNTMYLQMDSLRPEDTAVYYCAARDRYGSGNSLSPSAYDYWGQGTQVTVSS | 0.049 |
| FJ1427_P035MP04C12 (VHH) VHH: EVQLVESGGGWVQVGESLRLSCAPSGRTFVSGIMGWFRQAPGKEREFVARIILNNNSTRYIDSVKGRFTISRDSAKNTMYLQMDSLRPEDTAVYYCAARDRYGSGNSLSPSAYDYWGQGTQVTVSS | 0.048 |
| FJ1427_P035MP04C10 (VHH) VHH: QVQLQESGGGWVQVGESLRLSCVPSGRTFVSGIMGWFRQAPGKEREFVARIILNNNSTRYTDSVKGRFTISRDSAKNTMYLQMNTLRPEDTAVYYCAARDRYGSGNSLSPSAYDYWGQGTQVTVSS | 0.047 |
| FJ1427_P035MP04B10 (VHH) VHH: EVQLVESGGGWVQVGESLRLSCAPSGRTFVSGIMGWFRQAPGKEREFVARIILNNNSTRYIDSVKGRFTISRDSAKNTMYLQMDSLRPEDTAVYYCAARDRYGSGNSLSPSAYDYWGQGTQVTVSL | 0.047 |
| FJ1427_P035MP04D08 (VHH) VHH: QVQLVESGGGLVQAGESLRLSCAASGPTASRVAVAWFRQVPGKEREFVAVVNRPGTMTKYADSVKGRFTISRDSAKNTVYLQMNSLKPEDTAVYYCAADSVPYGRPYYFQTSAGNYDYWGQGTQVTVSS | 0.048 |
| FJ1427_P035MP04A11 (VHH) VHH: QVQLVESGGGLVQAGESLRLSCAASGPTASRVAVAWFRQVPGKEREFVAVVNRPGTMTKYADSVKGRFTISRDSAKNTVYLQMNSLKPEDTAVYYCAADSVPYGRPYYFQTSAGNYDYWGQGTQVTVSS | 0.05 |
| FJ1427_P035MP04H08 (VHH) VHH: EVQLVESGGGLVQAGESLRLSCAASGPTASRVAVAWFRQVPGKEREFVAVVNRPGTMTKYADSVKGRFTISRDSAKNTVYLQMNSLKPEDTAVYYCAADSVPYGRPYYFQTSAGNYDYWGQGTQVTVSS | 0.053 |
| FJ1427_P035MP04C11 (VHH) VHH: QVQLVESGGGLVQHGGSLRLSCAASGPTFSRVAVGWFRQVPGKEREFVAVVNRPGSMTKYADSVKGRFNISRDTAKNTVYLQMNSLKPEDTAVYYCAADSVPYGRPYYFTTSAGDYDYWGQGTQVTVSS | 0.047 |
| FJ1427_P035MP04G09 (VHH) VHH: QVQLQESGGGLVQAGGSLRLSCAASGPTFSRVAVGWFRQVPGKEREFVAAVNRPATMTKYADSVKGRFTISRDNAKNTVDLQMNSMKPEDTAVYYCAADSVPYGRPYYFQTSAGEYDYWGQGTQVTVSS | 0.05 |
